System: peptide library, one residue held at a place counted from the S/T acceptor
Assay: relative phosphorylation of the sub-library (ratio to the mean residue at this position); higher = residue favoured
Method in brief: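 Spots on streptavidin membranes were phosphorimaged and quantified by densitometry to measure phosphorylation of biotinylated degenerate peptide sub-libraries by purified recombinant kinases, human or orthologue constructs. The reactions ran in 384-well plates for 90 min under kinase-specific conditions, with peptides at 50 μM and 50 μM ATP spiked with γ-32P-ATP. Relative sub-library phosphorylation is the ratio to the mean residue at that position.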

Chain of PRKD2, construct: Full length, human (Q9BZL6 whole entry, looked up): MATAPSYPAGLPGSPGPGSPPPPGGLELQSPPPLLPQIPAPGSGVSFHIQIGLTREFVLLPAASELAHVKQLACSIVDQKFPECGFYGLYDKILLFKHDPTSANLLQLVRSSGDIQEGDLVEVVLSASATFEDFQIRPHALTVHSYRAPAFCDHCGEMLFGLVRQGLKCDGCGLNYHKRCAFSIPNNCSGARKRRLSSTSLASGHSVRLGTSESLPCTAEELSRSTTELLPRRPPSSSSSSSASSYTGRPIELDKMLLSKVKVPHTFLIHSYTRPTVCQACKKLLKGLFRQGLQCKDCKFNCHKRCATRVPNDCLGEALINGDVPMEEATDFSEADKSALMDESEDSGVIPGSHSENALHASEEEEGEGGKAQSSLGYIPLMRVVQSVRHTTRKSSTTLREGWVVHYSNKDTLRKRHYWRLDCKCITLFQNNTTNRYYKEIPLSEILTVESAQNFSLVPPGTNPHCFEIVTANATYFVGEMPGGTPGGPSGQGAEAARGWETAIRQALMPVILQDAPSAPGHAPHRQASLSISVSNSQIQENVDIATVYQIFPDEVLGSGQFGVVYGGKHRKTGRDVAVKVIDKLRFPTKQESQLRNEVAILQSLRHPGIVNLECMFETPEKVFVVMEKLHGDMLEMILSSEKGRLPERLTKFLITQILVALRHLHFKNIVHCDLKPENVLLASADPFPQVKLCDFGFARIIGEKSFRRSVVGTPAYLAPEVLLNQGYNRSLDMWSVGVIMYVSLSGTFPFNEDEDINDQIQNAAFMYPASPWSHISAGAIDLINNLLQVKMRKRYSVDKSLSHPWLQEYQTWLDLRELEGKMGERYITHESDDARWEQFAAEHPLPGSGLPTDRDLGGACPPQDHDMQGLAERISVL

PRKCI, construct: Full length, human (from UniProt P41743)
relative phosphorylation
Settings | at +1 | at +2 | at +3 | at +4 | at -1 | at -2 | at -3 | at -4 | at -5
A fixed | 0.617 | 0.488 | 0.873 | 0.871 | 1.13 | 0.692 | 0.835 | 1.12 | 1
D fixed | 0.136 | 0.156 | 0.275 | 0.43 | 0.343 | 0.184 | 0.208 | 0.464 | 0.499
E fixed | 0.134 | 0.152 | 0.277 | 0.378 | 0.317 | 0.197 | 0.23 | 0.464 | 0.425
F fixed | 1.85 | 0.543 | 0.961 | 0.688 | 0.607 | 0.995 | 1.06 | 0.998 | 1.39
G fixed | 0.617 | 0.557 | 0.946 | 1.07 | 1.4 | 0.883 | 0.846 | 1.04 | 1.02
H fixed | 0.755 | 1.42 | 1.24 | 1.2 | 0.896 | 1.17 | 1.01 | 1.1 | 1.05
I fixed | 1.34 | 0.654 | 0.855 | 0.926 | 0.35 | 0.447 | 0.543 | 0.782 | 0.792
K fixed | 1.93 | 2.63 | 2.28 | 2.33 | 2.57 | 1.52 | 1.86 | 1.71 | 1.71
L fixed | 1.18 | 0.538 | 0.882 | 0.716 | 0.617 | 0.601 | 0.745 | 0.761 | 1.13
M fixed | 1.74 | 0.873 | 0.722 | 0.745 | 1.02 | 0.878 | 0.915 | 0.883 | 0.814
N fixed | 0.58 | 0.59 | 0.598 | 0.765 | 0.921 | 0.768 | 0.579 | 0.899 | 0.771
P fixed | 0.445 | 0.401 | 0.699 | 1.11 | 0.731 | 0.423 | 0.603 | 0.75 | 0.79
Q fixed | 0.79 | 0.655 | 0.659 | 0.863 | 1.12 | 0.813 | 0.698 | 0.859 | 0.788
R fixed | 2.23 | 5.01 | 2.67 | 2.07 | 2.73 | 4.2 | 4.14 | 1.78 | 1.76
V fixed | 1.04 | 0.643 | 0.792 | 0.774 | 0.607 | 0.478 | 0.655 | 0.935 | 0.89
W fixed | 0.696 | 0.658 | 1.14 | 1.14 | 0.637 | 1.02 | 1.01 | 1.53 | 1.22
Y fixed | 0.92 | 1.04 | 1.15 | 0.923 | 0.993 | 1.73 | 1.06 | 0.926 | 0.948
pThr fixed | 0.598 | 0.355 | 0.444 | 0.621 | 0.312 | 0.388 | 0.638 | 0.775 | 0.716
pTyr fixed | 0.324 | 0.334 | 0.539 | 0.442 | 0.309 | 0.349 | 0.391 | 0.388 | 0.599

PRKD2, construct: Full length, human (from UniProt Q9BZL6)
relative phosphorylation
Settings | at +1 | at +2 | at +3 | at +4 | at -1 | at -2 | at -3 | at -4 | at -5
A fixed | 0.733 | 0.998 | 0.83 | 0.983 | 0.788 | 1.13 | 0.848 | 1.19 | 1.26
D fixed | 0.55 | 1.02 | 0.913 | 1.22 | 0.704 | 0.232 | 0.153 | 0.433 | 0.319
E fixed | 0.422 | 0.622 | 0.731 | 0.928 | 0.452 | 0.404 | 0.266 | 0.885 | 0.286
F fixed | 0.883 | 0.718 | 0.749 | 0.907 | 0.592 | 0.592 | 0.345 | 0.718 | 0.788
G fixed | 0.986 | 1.31 | 1.65 | 1.43 | 0.613 | 0.516 | 0.679 | 1.51 | 0.762
H fixed | 0.977 | 1.06 | 1 | 1.15 | 1.03 | 0.838 | 0.658 | 0.963 | 0.517
I fixed | 0.932 | 0.434 | 0.532 | 0.602 | 0.402 | 0.417 | 0.222 | 0.593 | 1.1
K fixed | 1.22 | 1.07 | 1.11 | 1.14 | 2.6 | 2.73 | 2.59 | 1.86 | 0.788
L fixed | 1.1 | 0.627 | 0.772 | 0.675 | 1.04 | 0.785 | 0.28 | 0.698 | 2.71
M fixed | 1.12 | 0.71 | 0.656 | 0.732 | 0.886 | 1.62 | 0.424 | 1.13 | 0.752
N fixed | 2.43 | 2.02 | 1.44 | 1.19 | 1.73 | 1.06 | 0.682 | 0.778 | 0.634
P fixed | 0.399 | 1.89 | 2.6 | 1.42 | 1.49 | 0.415 | 0.992 | 0.512 | 1.35
Q fixed | 1.42 | 1.3 | 1.09 | 1.28 | 0.993 | 2.09 | 0.981 | 1.4 | 1.02
R fixed | 1.14 | 1.01 | 0.794 | 0.701 | 1.71 | 2.34 | 6.73 | 2.16 | 1.8
V fixed | 0.902 | 0.49 | 0.592 | 0.756 | 0.571 | 0.73 | 0.265 | 0.714 | 1.62
W fixed | 0.759 | 0.916 | 0.736 | 1.01 | 0.545 | 0.474 | 0.438 | 0.663 | 0.515
Y fixed | 1.02 | 0.804 | 0.796 | 0.889 | 0.857 | 0.625 | 0.443 | 0.79 | 0.78
pThr fixed | 0.67 | 0.623 | 0.888 | 0.916 | 0.194 | 0.233 | 0.213 | 0.628 | 0.39
pTyr fixed | 0.699 | 0.574 | 0.946 | 0.864 | 0.781 | 0.31 | 0.215 | 0.523 | 0.775

Source: the supplement of paper PMC9876800
